Results on two proteins are retold here after PMC12861225.

What all share (conditions): glycan lost; control: wild type
Data set [1] can be described thus: SYPRO Orange thermal shift, pooled purified protein.
Data set [2] can be described thus: anti-Flag immunoblot, lysate vs medium, 1 μM MG-132 16 h. (In western blotting, separated proteins are transferred to a membrane and probed.)
The nature of data set [3]: anti-Flag capillary immunoblot of Flag-purified medium, pooled n=6.

B1: Tissue-nonspecific alkaline phosphatase (TNALP): N140Q/N271Q (protein)
parent chain: MISPFLVLAIGTCLTNSLVPEKEKDPKYWRDQAQETLKYALELQKLNTNVAKNVIMFLGDGMGVSTVTAARILKGQLHHNPGEETRLEMDKFPFVALSKTYNTNAQVPDSAGTATAYLCGVKANEGTVGVSAATERSRCNTTQGNEVTSILRWAKDAGKSVGIVTTTRVNHATPSAAYAHSADRDWYSDNEMPPEALSQGCKDIAYQLMHNIRDIDVIMGGGRKYMYPKNKTDVEYESDEKARGTRLDGLDLVDTWKSFKPRYKHSHFIWNRTELLTLDPHNVDYLLGLFEPGDMQYELNRNNVTDPSLSEMVVVAIQILRKNPKGFFLLVEGGRIDHGHHEGKAKQALHEAVEMDRAIGQAGSLTSSEDTLTVVTADHSHVFTFGGYTPRGNSIFGLAPMLSDTDKKPFTAILYGNGPGYKVVGGERENVSMVDYAHNNYQAQSAVPLRHETHGGEDVAVFSKGPMAHLLHGVHEQNYVPHVMAYAACIGANLGHCAPASSAGSLAAGPLLLALALYPLSVLF
For the protein B1, the “stability_or_folding, Tm” value in data set [1] was “decreases, 53.7 vs 54.5”. In addition, in data set [2], the “localisation_or_trafficking, fold_change” value is on record as “changes”. The “expression_or_secretion, fold_change” value in data set [3] is given as “decreases, 0.2 vs 1.0”.

B2: Tissue-nonspecific alkaline phosphatase (TNALP): N230Q/N271Q (protein)
parent chain: MISPFLVLAIGTCLTNSLVPEKEKDPKYWRDQAQETLKYALELQKLNTNVAKNVIMFLGDGMGVSTVTAARILKGQLHHNPGEETRLEMDKFPFVALSKTYNTNAQVPDSAGTATAYLCGVKANEGTVGVSAATERSRCNTTQGNEVTSILRWAKDAGKSVGIVTTTRVNHATPSAAYAHSADRDWYSDNEMPPEALSQGCKDIAYQLMHNIRDIDVIMGGGRKYMYPKNKTDVEYESDEKARGTRLDGLDLVDTWKSFKPRYKHSHFIWNRTELLTLDPHNVDYLLGLFEPGDMQYELNRNNVTDPSLSEMVVVAIQILRKNPKGFFLLVEGGRIDHGHHEGKAKQALHEAVEMDRAIGQAGSLTSSEDTLTVVTADHSHVFTFGGYTPRGNSIFGLAPMLSDTDKKPFTAILYGNGPGYKVVGGERENVSMVDYAHNNYQAQSAVPLRHETHGGEDVAVFSKGPMAHLLHGVHEQNYVPHVMAYAACIGANLGHCAPASSAGSLAAGPLLLALALYPLSVLF
Consider B2, for which, in data set [2], the “localisation_or_trafficking, fold_change” value is “changes”. Besides, the “expression_or_secretion, fold_change” value in data set [3] is “abolishes, 0.0 vs 1.0”.
